# According to the RNAGym collection of RNA variant scans (doi:10.7554/elife.80360):
# B1: CPEB3 Ribozyme (parent)
# chain: GGGGGCCACAGCAGAAGCGUUCACGUCGCGGCCCCUGUCAGAUUCUGGUGAAUCUGCGAAUUCUGCUGU
# Variants of: B1
# Assay: self-cleavage, relative activity (ratio to wild type); higher = more cleavage; co-transcriptional
row,Variant,self-cleavage
1,G2C C45U,0.0464
2,G2C C45G,0.0374
3,G2C C45A,0.0472
4,G2A G47A,0.189
5,G2A G47C,0.176
6,G2C C24A,0.0707
7,G2C C24G,0.0232
8,G2A U69A,0.256
9,G2A U69G,0.335
10,G1U C63U,0.0897
11,G1U C63A,0.101
12,G1U G50U,0.056
13,G1U G50C,0.0733
14,G2A A8G,0.105
15,G2A A8U,0.199
16,G2A G3U,0.0425
17,G2A G3A,0.0827
18,G2A G3C,0.176
19,G1U U46G,0.0728
20,G1U U46A,0.123
21,G2C C57A,0.036
22,G2C C57U,0.054
23,G2C C57G,0.0289
24,G1U G68C,0.0929

row,Variant,self-cleavage
1,G1U G68A,0.129
2,G1U G68U,0.173
3,G2C G5A,0.0455
4,G2C G4C,0.0427
5,G2C G4U,0.0417
6,G2C G4A,0.0684
7,G2C C27G,0.106
8,G2C C27A,0.0594
9,G2C G17C,0.0475
10,G2C G17A,0.0551
11,G2C A51G,0.0786
12,G2C A51C,0.0374
13,G2A C39A,0.032
14,G2A C39U,0.072
15,G2C A10C,0.0373
16,G2C A10U,0.0719
17,G2C A10G,0.0728
18,G1U G2C,0.333
19,G1U G2A,0.0657
20,G2C A13G,0.084
21,G2C A13U,0.0221
22,G2A C9G,0.411
23,G2A C9A,0.435
24,G2A C9U,0.493

row,Variant,self-cleavage
1,G2C A40U,0.0469
2,G2C A40C,0.0316
3,G2C A40G,0.0911
4,G2A C22G,0.0504
5,G2A C22U,0.051
6,G2C A16U,0.0422
7,G2C A16C,0.0354
8,G2C A16G,0.0604
9,G2A A10C,0.259
10,G2A A10G,0.201
11,G2A C33A,0.0406
12,G2A C33U,0.0941
13,G2A A42U,0.0966
14,G2A A42C,0.0844
15,G2C G37A,0.0459
16,G2C G37U,0.0045
17,G2C C7U,0.0258
18,G2C C7A,0.0323
19,G2C G19U,0.0175
20,G2C G19C,0.0249
21,G2C G48U,0.105
22,G2C G48C,0.0429
23,G2C G14A,0.0455
24,G2C G14C,0.0627

row,Variant,self-cleavage
1,G2C C63G,0.0678
2,G1U G19A,0.0502
3,G2A G30U,0.058
4,G2A G30C,0.0605
5,G2A G30A,0.0606
6,G1U G5C,0.0789
7,G2A C32U,0.0612
8,G2C G47C,0.0332
9,G2A G58U,0.221
10,G2A G58A,0.0846
11,G2A G58C,0.106
12,G1U U44G,0.127
13,G1U U44A,0.0951
14,G1U U44C,0.106
15,G2A U26A,0.11
16,G2A U26C,0.114
17,G2A U26G,0.0691
18,G2C C66U,0.0685
19,G2C C66A,0.052
20,G2A U64A,0.115
21,G2A U64C,0.0804
22,G2A U64G,0.0844
23,G2C C34A,0.0678
24,G2C C34U,0.0646

row,Variant,self-cleavage
1,G2C C33U,0.0465
2,G2C C33G,0.0592
3,G2C C33A,0.0155
4,G1U U53G,0.101
5,G1U U53A,0.0914
6,G2A C29U,0.0474
7,G2A C29G,0.0351
8,G2A C29A,0.0397
9,G2C A60C,0.0369
10,G2C A60U,0.0243
11,G2C A60G,0.0533
12,G2A C34A,0.0453
13,G2A C34U,0.106
14,G2A U49G,0.149
15,G2A U49C,0.21
16,G2A G37A,0.0498
17,G2A G37C,0.0177
18,G2A G37U,0.0408
19,G2C C12G,0.0599
20,G2C C12U,0.065
21,G2C A15G,0.0305
22,G2C A15C,0.0125
23,G2C A15U,0.0423
24,G2C C22A,0.0368

row,Variant,self-cleavage
1,G2C C22U,0.0697
2,G2A A40U,0.0585
3,G2A G56C,0.0906
4,G2A G56A,0.1
5,G2A G56U,0.0991
6,G2A,0.216
7,G2C,0.0678
8,G2A C45G,0.217
9,G2C C35G,0.313
10,G2C C35A,0.0223
11,G2A U20G,0.0568
12,G2A C6G,0.0574
13,G2A C6A,0.044
14,G2A C6U,0.0868
15,G2A A59C,0.0548
16,G2A A59U,0.0616
17,G2A A59G,0.129
18,G2A U21A,0.114
19,G2A U21G,0.0545
20,G2A U21C,0.0698
21,G1U U38C,0.0816
22,G1U U38G,0.0202
23,G1U U21G,0.0804
24,G1U U21C,0.119

row,Variant,self-cleavage
1,G1U G31C,0.0835
2,G1U G31A,0.0918
3,G1U G31U,0.0933
4,G1U G3A,0.04
5,G1U G3C,0.0566
6,G1U G3U,0.0448
7,G2A C54U,0.152
8,G2A C54A,0.112
9,G1U U64A,0.0494
10,G1U U64C,0.0613
11,G1U U64G,0.117
12,G2C A59C,0.027
13,G2C A59U,0.0322
14,G2A C66U,0.236
15,G2A C66A,0.0939
16,G2A C66G,0.101
17,G2A U38A,0.134
18,G2A U38C,0.117
19,G2A A51U,0.233
20,G2A A51C,0.0717
21,G2A A51G,0.158
22,G2A A52G,0.242
23,G2A A52U,0.12
24,G2A G17A,0.0268

row,Variant,self-cleavage
1,G2A G17U,0.0353
2,G1U U26C,0.0437
3,G2A A13C,0.109
4,G2A A13G,0.129
5,G2A C57G,0.047
6,G2A C57U,0.0401
7,G2A C57A,0.0762
8,G2A C63U,0.173
9,G2A C63G,0.0931
10,G2A U43G,0.144
11,G2A U43C,0.123
12,G2A U43A,0.139
13,G2A A60C,0.0397
14,G2A C35U,0.542
15,G2A C35G,0.0841
16,G2A C35A,0.0641
17,G1U G65A,0.0898
18,G1U G65U,0.0644
19,G1U G65C,0.0555
20,G2A U61C,0.0999
21,G1U G48A,0.192
22,G1U G48U,0.079
23,G1U G48C,0.0782
24,G2C G25C,0.0473

row,Variant,self-cleavage
1,G2C G25U,0.0456
2,G2A G25U,0.0625
3,G2A G25C,0.0386
4,G1U G4C,0.0734
5,G1U G4U,0.127
6,G1U G4A,0.112
7,G1U G30U,0.0366
8,G1U G30C,0.0755
9,G2A U55G,0.0739
10,G2A U55C,0.0545
11,G2A U55A,0.109
12,G2A G28U,0.0733
13,G2A G28A,0.0492
14,G2A G5C,0.122
15,G2A G5A,0.0392
16,G2A G65U,0.067
17,G2A G65C,0.122
18,G1U U20A,0.042
19,G2C C32G,0.0507
20,G2C C32A,0.00762
21,G2C C32U,0.0415
22,G2A C18U,0.0628
23,G2A G31A,0.0613
24,G2C C9G,0.123

row,Variant,self-cleavage
1,G2C C9A,0.0938
2,G2C G3C,0.0247
3,G2C G3A,0.055
4,G2A G19U,0.0445
5,G2A G19A,0.0283
6,G2C A52C,0.0825
7,G2C G56A,0.014
8,G1U G58U,0.137
9,G1U G58C,0.128
10,G1U G41U,0.116
11,G1U G41C,0.036
12,G1U G41A,0.123
13,G2C C39U,0.0154
14,G2A C12G,0.123
15,G2C G50U,0.0262
16,G2C G50C,0.0266
17,G1U U62A,0.137
18,G1U U62C,0.0771
19,G1U U62G,0.0907
20,G1U G37A,0.0613
21,G1U U55G,0.118
22,G1U U55A,0.109
23,G1U U55C,0.0608
24,G2A U36A,0.0357

row,Variant,self-cleavage
1,G2A U36C,0.129
2,G2A U36G,0.209
3,G1U G17U,0.0803
4,G2C A23C,0.0568
5,G1U G14A,0.118
6,G1U G14C,0.133
7,G2C A42G,0.0702
8,G2A C7A,0.0557
9,G2A C7U,0.0501
10,G2A C27A,0.0442
11,G2A C27U,0.0441
12,G2A C27G,0.0739
13,G2A A15C,0.0708
14,G2A A15U,0.0881
15,G2A U46G,0.135
16,G2A U46A,0.202
17,G2A U46C,0.13
18,G1U U49G,0.152
19,G1U U49C,0.0511
20,G1U U49A,0.124
21,G2C C6G,0
22,G2C C6A,0.0465
23,G2C C6U,0.0751
24,G2C G30U,0.0301

row,Variant,self-cleavage
1,G2C G30A,0.0388
2,G2C G28U,0.0543
3,G2C G28C,0.0457
4,G2C G28A,0.0369
5,G2A U44C,0.123
6,G1U U69G,0.265
7,G1U U69A,0.194
8,G1U U43C,0.127
9,G1U U43A,0.0877
10,G1U U43G,0.113
11,G2A G68C,0.335
12,G2A G68A,0.445
13,G2C G11U,0.0219
14,G2C G11C,0.0455
15,G2C G11A,0.0352
16,G2A G48C,0.227
17,G2A G48A,0.213
18,G2A G48U,0.215
19,G2C G31C,0.0401
20,G2C G31U,0.0216
21,G2C G31A,0.0545
22,G1U C57U,0.0565
23,G2C C18A,0.0265
24,G2C C18U,0.0354

row,Variant,self-cleavage
1,G2A U67G,0.167
2,G2A U67A,0.281
3,G2A U67C,0.242
4,G1U G47A,0.117
5,G1U G47U,0.14
6,G2A C24G,0.0162
7,G2A G11C,0.0914
8,G2A G11A,0.101
9,G2A G11U,0.117
10,G2C A8C,0.039
11,G2C A8U,0.0675
12,G2A U62G,0.129
13,G2A U62A,0.11
14,G2A U62C,0.146
15,G2A G41U,0.0833
16,G2A G41A,0.0631
17,G2A A23G,0.15
18,G2A A23C,0.111
19,G1U G28A,0.0369
20,G1U G28C,0.0671
21,G2C C54A,0.0299
22,G2C C54U,0.0485
23,G1U U36C,0.102
24,G1U U36G,0.0723

row,Variant,self-cleavage
1,G2C G41U,0.101
2,G2C G41C,0.0808
3,G1U G11A,0.0662
4,G1U U67A,0.167
5,G1U U67G,0.204
6,G1U U67C,0.0935
7,G1U C66A,0.0594
8,G1U C66G,0.0803
9,G2A A16U,0.1
10,G2C C29U,0.0639
11,G2C C29G,0.0119
12,G2A G50U,0.173
13,G2A G50A,0.177
14,G2A G50C,0.154
15,G1U U61G,0.208
16,G1U U61A,0.0989
17,G2A G14C,0.075
18,G2A G14A,0.0649
19,G2A G14U,0.0746
20,G2A U53G,0.109
21,G1U G56U,0.108
22,G1U G56C,0.105
